# In US20220332804A1 (CSL INNOVATION, published 2022):
# Residue numbers refer to the chain shown, from its start.
# B1: RF16-226 (antibody, human IgG4 S228P, lambda)
# heavy: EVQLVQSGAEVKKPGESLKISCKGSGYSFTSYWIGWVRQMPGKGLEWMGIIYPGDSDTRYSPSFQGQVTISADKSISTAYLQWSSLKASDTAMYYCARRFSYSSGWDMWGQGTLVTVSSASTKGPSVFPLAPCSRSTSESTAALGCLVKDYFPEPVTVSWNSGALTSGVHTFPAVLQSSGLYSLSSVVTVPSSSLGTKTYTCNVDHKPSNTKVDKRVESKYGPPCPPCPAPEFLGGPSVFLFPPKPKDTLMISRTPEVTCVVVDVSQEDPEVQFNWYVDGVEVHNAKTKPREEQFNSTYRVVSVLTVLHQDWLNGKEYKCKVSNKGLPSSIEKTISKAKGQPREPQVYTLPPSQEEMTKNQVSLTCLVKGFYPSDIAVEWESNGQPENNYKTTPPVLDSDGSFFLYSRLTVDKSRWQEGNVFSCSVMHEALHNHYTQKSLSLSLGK
# light: SYELTQPPSVSVSPGQTARITCSGDALTSKYVAWYQQKSGLAPLLVIYEDTRRPSGIPAKFSGSSSGSVATLTISGAHGDDEADYYCYSTDASGHQRVFGGGTKLTVLSQPKAAPSVTLFPPSSEELQANKATLVCLISDFYPGAVTVAWKADGSPVKAGVETTKPSKQSNNKYAASSYLSLTPEQWKSHRSYSCQVTHEGSTVEKTVAPTECS
# notes: pH-dependent anti-C2 antibody from a phage display library; also called WT
# Key:
# Experiment in all cases: SPR, KD relative to WT C2;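 also: biacore SPR at 37 °C, anti-C2 mAbs captured via immobilised goat anti-human IgG, C2 alanine or serine surface mutants as analytes, 1:1 model fitted, double-referenced sensograms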
# [1] = target: T1, human C2 G707A (human, UniProt P06681 21-752)
# T1 sequence: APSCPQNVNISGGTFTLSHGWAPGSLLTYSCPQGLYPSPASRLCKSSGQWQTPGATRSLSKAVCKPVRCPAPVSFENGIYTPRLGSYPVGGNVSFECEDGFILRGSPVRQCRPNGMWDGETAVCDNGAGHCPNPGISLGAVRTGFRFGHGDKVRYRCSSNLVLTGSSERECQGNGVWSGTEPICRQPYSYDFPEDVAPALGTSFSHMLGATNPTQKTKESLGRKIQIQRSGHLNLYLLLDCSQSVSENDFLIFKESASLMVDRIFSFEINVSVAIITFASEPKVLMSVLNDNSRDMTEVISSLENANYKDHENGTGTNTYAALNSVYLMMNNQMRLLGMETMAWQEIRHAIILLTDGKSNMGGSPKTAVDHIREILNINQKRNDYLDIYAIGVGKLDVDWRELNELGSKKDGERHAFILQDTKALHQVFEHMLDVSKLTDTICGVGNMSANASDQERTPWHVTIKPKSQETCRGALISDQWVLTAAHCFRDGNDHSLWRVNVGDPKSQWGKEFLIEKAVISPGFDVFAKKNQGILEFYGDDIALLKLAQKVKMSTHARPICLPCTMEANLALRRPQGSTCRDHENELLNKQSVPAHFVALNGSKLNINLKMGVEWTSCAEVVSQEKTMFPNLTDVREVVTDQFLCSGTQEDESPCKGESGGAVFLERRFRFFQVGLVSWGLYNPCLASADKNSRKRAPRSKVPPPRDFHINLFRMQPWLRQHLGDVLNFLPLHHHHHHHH
# [2] = target: T2, human C2 E275A (human, UniProt P06681 21-752)
# T2 sequence: T1 sequence with E255A, A687G
# [3] = target: T3, human C2 Q447A (human, UniProt P06681 21-752)
# T3 sequence: T1 sequence with Q427A, A687G
# [4] = target: T4, human C2 E476A (human, UniProt P06681 21-752)
# T4 sequence: T1 sequence with E456A, A687G
binder,measurement,setting,value
B1,Fold diff,[1],2 fold
same,Fold diff,[2],1 fold
same,Fold diff,[3],1 fold
same,Fold diff,[4],2 fold
